The subject of assay [1] is 005 GSC and CT2A tumors. Kind of assay: Survival of C57BL/6 mice implanted with 005 GSCs or CT2A cells. Type of assay: in vivo, mouse. The settings on record: anti-PD1 10 mg/kg i.p. on days 11, 14 and 17, MK-0429 30 mg/kg or AS1517499 10 mg/kg i.p. every other day. On the procedure:
Female C57BL/6 (#0000664), nude mice (#007850), and B6.12952(C)-Stat6tm1Gru/J mice (STAT6-KO; #005977) at 6 weeks of age were purchased from the Jackson Laboratory. Mice were grouped by 5 animals and maintained in a pathogen-free IVC System (San Diego, CA) for a week before the experiment. All animal experiments were performed with the approval of the Institutional Animal Care and Use Committee (IACUC) at Northwestern University. The intracranial xenograft tumor models were established (Refs. 11, 61; incorporated by reference in their entireties). Ketamine (100 mg/kg) and xylazine (20 mg/kg) were used for anesthetizing mice through intraperitoneal injection. Then a dental drill was used to open a small hole in the skull 1.2 mm anterior and 3.0 mm lateral to the bregma. A total volume of […] cells in FBS-free DMEM was injected into the right caudate nucleus 3 mm below the surface of the brain using a […] Hamilton syringe with an unbeveled 30-gauge needle. Total three doses of 20 mg/kg meloxicam were administrated before and after surgery through subcutaneous injection. After cancer cell implantation, mice were monitored for recording survival. Mice with neurological deficits or moribund appearance were sacrificed. Following the transcardiac perfusion with PBS and 4% paraformaldehyde (PFA), brains were removed and fixed in 4% PFA, and were processed for paraffin-embedded blocks or cryosectioning.

Assay [2] concerns the target T1, CD51 (integrin alpha V, ITGAV) on human microglia (HMC3 cell line, primary human microglia PrhMG) (human, UniProt P06756 31-1048).
T1 construct: whole, on cells; Endogenous protein of human microglia; also called Integrin aV/CD51
Kind of assay: IP-MS: membrane proteins of PrhMG incubated with TFPI2 recombinant protein, immunoprecipitated with TFPI2 antibody, LC-MS; CD51 is one of the enriched membrane protein candidates. On the procedure: Permeabilized cells were centrifuged for 15 min at 16,000 g to remove the supernatant containing cytosolic proteins. The cell pellets were then incubated with 0.5 ml solubilization buffer at 4° C. for 30 min with constant mixing. Solubilized membrane and membrane-associated proteins were isolated by centrifuging at 16,000 g for 15 min at 4° C. Extracted membrane-associated proteins were proceeded for IP-MS pull-down assay. A total of […] cell membrane lysate was incubated with […] TFPI2 antibody (Abcam, #ab186747) or IgG control (Cell Signaling Technology, #2729) for 12 hrs with gentle rotation at 4° C. […] Protein A/G PLUS-Agarose (#sc-2003, Santa Cruz Biotechnology) were mixed with each sample on ice. The lysate bead mixture was incubated at 4° C. under rotary agitation for 4 hrs. The tubes were centrifuged to remove supernatant. The beads were then washed in lysis buffer three times to remove non-specific binding. After removing wash buffer, the complex was washed with pre-urea wash buffer (50 mM Tris pH 8.5, 1 mM EGTA, 75 mM KCl) to remove all residual supernatant. […] IP pulled-down samples were analyzed by LC-MS/MS using a Dionex UltiMate 3000 Rapid Separation nanoLC coupled to the Orbitrap Elite Mass Spectrometer (Thermo Fisher Scientific Inc, San Jose, CA). […]

Assay [3] deals with CD51. Kind of assay: Co-immunoprecipitation of TFPI2 and CD51 in microglia. It counts as binding, human and mouse. As to conditions: SIM-A9 and HMC3 microglia treated with 20 ng/ml TFPI2 recombinant protein for 1 hr; anti-CD51 or anti-TFPI2 antibody. How it is done:
Co-IP was performed using Invitrogen™ Dynabeads™ Protein G Immunoprecipitation Kit (Thermo Fisher Scientific, #10007D). Briefly, human or mouse microglia were treated with 20 ng/ml TFPI2 recombinant protein for 1 hr. RIPA lysis buffer was then used to extract protein after washing with PBS. Magnetic beads (1.5 mg) were separated from the solution using a magnetic stand. […] TFPI2 antibody (Abcam, #ab186747), CD51 antibody (Cell Signaling Technology, #4711S), or rabbit IgG (isotype control, Cell Signaling Technology, #2729) was prepared in […] of antibody binding and washing Buffer. Antibody or IgG was incubated with magnetic beads for 10 min at room temperature with rotation. After removing the supernatant, antibody/IgG-conjugated magnetic beads were incubated with cell lysis buffer for 2 hrs at room temperature with rotation to immunoprecipitate TFPI2- or CD51-interacting antigens. The magnetic bead-antibody-antigen complex was washed three times using […] washing buffer and then eluted with the elution buffer. The complex was loaded into 4-12% SurePAGE gels to evaluate target protein expression after Co-IP.

Some results are limits rather than exact numbers.

T1 sequence (P06756 31-1048): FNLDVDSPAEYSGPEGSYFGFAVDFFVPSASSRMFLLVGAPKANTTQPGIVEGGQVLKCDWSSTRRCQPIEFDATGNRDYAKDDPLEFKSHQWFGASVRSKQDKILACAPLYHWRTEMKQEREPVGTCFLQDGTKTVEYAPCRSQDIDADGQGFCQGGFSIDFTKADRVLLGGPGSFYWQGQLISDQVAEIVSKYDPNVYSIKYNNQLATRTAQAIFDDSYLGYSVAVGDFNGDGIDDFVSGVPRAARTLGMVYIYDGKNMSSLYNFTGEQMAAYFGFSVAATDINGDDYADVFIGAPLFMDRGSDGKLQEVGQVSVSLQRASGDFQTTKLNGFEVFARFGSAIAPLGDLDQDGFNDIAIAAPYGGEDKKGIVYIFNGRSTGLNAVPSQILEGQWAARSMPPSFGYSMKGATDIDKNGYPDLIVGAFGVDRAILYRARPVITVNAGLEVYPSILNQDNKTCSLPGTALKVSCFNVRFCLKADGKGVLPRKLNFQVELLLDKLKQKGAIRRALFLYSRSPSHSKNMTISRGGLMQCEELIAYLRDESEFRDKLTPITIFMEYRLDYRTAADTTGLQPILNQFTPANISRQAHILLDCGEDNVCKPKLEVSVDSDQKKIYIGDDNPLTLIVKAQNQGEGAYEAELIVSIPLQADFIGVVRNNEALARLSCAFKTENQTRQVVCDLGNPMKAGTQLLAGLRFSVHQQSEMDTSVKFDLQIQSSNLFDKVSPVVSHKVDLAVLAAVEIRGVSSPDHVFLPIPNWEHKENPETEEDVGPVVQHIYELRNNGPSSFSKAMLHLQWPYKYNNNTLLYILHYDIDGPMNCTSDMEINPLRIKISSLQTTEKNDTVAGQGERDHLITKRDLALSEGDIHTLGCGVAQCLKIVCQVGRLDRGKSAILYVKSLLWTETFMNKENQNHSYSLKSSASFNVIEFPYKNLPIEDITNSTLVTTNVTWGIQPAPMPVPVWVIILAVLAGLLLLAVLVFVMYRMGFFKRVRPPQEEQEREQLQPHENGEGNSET

For `NC(=O)c1cnc(NCCc2ccc(O)c(Cl)c2)nc1NCc1ccccc1` [AS1517499], in assay [1], the “survival of mice bearing 005 GSC and CT2A tumors, combination with anti-PD1 therapy” value is recorded as “synergized”.

B1: TFPI2 recombinant protein (tissue factor pathway inhibitor 2; BioVision, #7481-10) (ligand, UniProt P48307 23-235, looked up)
chain: DAAQEPTGNNAEICLLPLDYGPCRALLLRYYYDRYTQSCRQFLYGGCEGNANNFYTWEACDDACWRIEKVPKVCRLQVSVDDQCEGSTEKYFFNLSSMTCEKFFSGGCHRNRIENRFPDEATCMGFCAPKKIPSFCYSPKDEGLCSANVTRYYFNPRYRTCDAFTYTGCGGNDNNFVSREDCKRACAKALKKKKKMPKLRFASRIRKIRKKQF
notes: Bought recombinant protein added to microglia at 20 ng/ml; also called recombinant TFPI2; secreted TFPI2
As for B1, the “fold change in TFPI2 IP group versus control IgG group” value in assay [2] was at least 2 fold. Further, in assay [3], the “interaction between CD51 and TFPI2” value is recorded as “confirmed”.
